The values that follow come from patent US20250163157A1 (Boehringer Ingelheim, published 2025).

The chains are these.
B1: reference antibody (full-length bivalent, monospecific, agonistic anti-CD277 antibody; heavy chain of SEQ ID NO:94, light chain of SEQ ID NO:93) (antibody, human IgG1, kappa, L234A L235A, V domains shown)
VH: QVQLQQSGAELVKPGASVKLSCKASGYTFTRYYLYWVKQRPGQGLEWIGEINPNNGGTKFNEKFKSKATLTVDKSSRTTYIQLSSLTSEDSAVYYCSREDDYDGTPDAMDYWGQGTAVTVSS
VL: DIQMNQSPSSLSASLGDTITITCHASQNINLWLSWYQQRPGNIPKLLIYRASNLHTGVPSRFSGSGSATGFTLTISSLQPEDIATYYCQQGHSYPYTFGGGTKLDIKR
notes: also called parent antibody
B2: Antibody 47 (anti-CD277; VL parent, VH CDR2 N185S, K190N) (antibody, V domains shown)
VH: QVQLQQSGAELVKPGASVKLSCKASGYTFTRYYLYWVKQRPGQGLEWIGEINPSNGGTNFNEKFKSKATLTVDKSSRTTYIQLSSLTSEDSAVYYCSREDDYDGTPDAMDYWGQGTAVTVSS
VL: DIQMNQSPSSLSASLGDTITITCHASQNINLWLSWYQQRPGNIPKLLIYRASNLHTGVPSRFSGSGSATGFTLTISSLQPEDIATYYCQQGHSYPYTFGGGTKLDIK
notes: also called EvB#47; EvB#23
B3: Antibody 52 (anti-CD277; VL CDR1 L31V, VH CDR2 N185S, K190N) (antibody, V domains shown)
VH: QVQLQQSGAELVKPGASVKLSCKASGYTFTRYYLYWVKQRPGQGLEWIGEINPSNGGTNFNEKFKSKATLTVDKSSRTTYIQLSSLTSEDSAVYYCSREDDYDGTPDAMDYWGQGTAVTVSS
VL: DIQMNQSPSSLSASLGDTITITCHASQNINVWLSWYQQRPGNIPKLLIYRASNLHTGVPSRFSGSGSATGFTLTISSLQPEDIATYYCQQGHSYPYTFGGGTKLDIK
notes: Its constructs use human IgG1 with L234A/L235A and human kappa; also called EvB#52; EvB#29

The target in this assay is T1, recombinant CD277 (human, UniProt O00481 30-254, limits assumed).
T1 construct: It gives no isoform (BTN3A1, A2 or A3), construct limits or supplier; also called BTN3A; Butyrophilin 3 family member BTN3A
T1 sequence (O00481 30-254 limits assumed): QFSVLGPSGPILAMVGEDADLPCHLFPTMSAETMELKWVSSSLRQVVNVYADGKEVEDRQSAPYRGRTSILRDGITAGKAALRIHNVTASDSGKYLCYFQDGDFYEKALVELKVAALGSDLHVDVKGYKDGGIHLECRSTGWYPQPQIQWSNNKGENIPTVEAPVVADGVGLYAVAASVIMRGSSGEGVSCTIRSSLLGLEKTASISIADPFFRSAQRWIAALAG
The assay is described as follows: SPR (Biacore), recombinant CD277 amine-coupled to CM5 chip, antibody as analyte, 1:1 Langmuir fit. The procedure: SPR assay was performed according to the state of the art. In short, recombinant CD277 was immobilized to the surface of a Biacore CM5 optical sensor chip by covalent EDC/NHS coupling following the Biacore amine coupling kit protocol. Antibody samples were applied as analytes in serial dilution allowing standardized comparison of all antibodies binding to the identical target molecule surface. Kinetic analysis data are based on 1:1 Langmuir curve fitting model and mean Langmuir on-rates, off-rates and KD values: see table 5.
(In general: Surface plasmon resonance follows binding to a sensor surface in real time, without labels.)
The term Kd denotes the constant that tells how readily two partners part at equilibrium. For the molecule B1, the Kd was 2.8 nM.

As for B2, the Kd amounted to 26.3 nM.

Consider B3, for which the dissociation constant (Kd) came to 13.9 nM.
